Test [1] concerns the target T1, recombinant human IL-1α (human, UniProt P01583 113-271).
T1 sequence: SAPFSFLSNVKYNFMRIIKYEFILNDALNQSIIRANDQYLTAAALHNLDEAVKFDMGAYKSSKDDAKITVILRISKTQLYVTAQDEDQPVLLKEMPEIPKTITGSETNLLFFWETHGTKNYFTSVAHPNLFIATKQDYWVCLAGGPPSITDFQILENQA
The test is described as follows: cell-based or functional assay.

The target of test [2] is T2, cynomolgus IL-1α (cynomolgus, UniProt P79340 113-271, limits assumed).
T2 sequence (looked up): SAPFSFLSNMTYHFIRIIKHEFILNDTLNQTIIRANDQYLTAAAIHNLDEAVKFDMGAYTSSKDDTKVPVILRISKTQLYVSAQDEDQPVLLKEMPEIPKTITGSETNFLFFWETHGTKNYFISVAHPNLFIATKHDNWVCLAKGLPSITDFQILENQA
The test is described as follows: cell-based or functional assay.

Test [3] concerns the target T1, recombinant human IL-1α. The test is described as follows: SPR (BIACORE), antibody captured, IL-1α in solution. Background: SPR reads the build-up and loss of mass on a sensor chip optically.
For test [4], the target named is T2, cynomolgus IL-1α. The test is described as above.
In test [5] the target is T1, recombinant human IL-1α. The test is described as follows: ELISA, antibody captured by anti-human Fc, biotinylated human IL-1α titrated. The method, then: To determine if anti-IL-1α antibodies bind to human IL-1α, ELISA plates (Nunc, MaxiSorp, Rochester, N.Y.) were incubated overnight at 4° C. with anti-human Fc antibody diluted in Pierce Coat buffer at 2 μg/ml (Jackson Immunoresearch, West Grove, Pa.). Plates were washed five times in washing buffer (PBS containing 0.05% Tween 20), and blocked for 1 hour at 25° C. with 200 μl per well superblock blocking buffer (Thermo scientific, #37515). Blocking buffer was removed by tapping plates, and […] of each antibody in PBS containing 10% superblock and 0.5% Tween-20 was added to the wells at 100 μl per well and incubated at 25° C. for 1 hour. The wells were washed five times in 1× PBST, and 1 mg/ml biotinylated antigen was titrated at 1:6 serial dilutions (for a range of mg to pg in PBS containing 10% superblock, 0.05% Tween 20). Each dilution of antigen was then added to the plates and incubated for 1 hour at 25° C. The wells were washed five times in 1× PBST and incubated for 1 hour at 25° C. with polyHRP streptavidin (KPL #474-3000, Gaithersburg, Md.). The wells were washed five times in 1× PBST, and 100 μl of ULTRA-TMB ELISA (Pierce, Rockford, Ill.) were added per well. Following color development, the reaction was stopped with 1N HCL and absorbance at 450 nm was measured. The half-maximal effective concentration (EC₅₀) values are shown in Table 9, and the numerical value indicates binding of anti-IL-1α antibodies to human IL-1α.
Background: ELISA stands for enzyme-linked immunosorbent assay.

B1: h3D12.r16 (antibody, V domains shown)
VH: EVQLVQSGAEVKKPGASVKVSCKASGYTFKYYGMNWVRQAPGQGLERMGWINTYTGQSTYADDFKGRVTFTLDTSTSTAYMELSSLRSEDTAVYYCARDIYYYGSDFAMDYWGQGTTVTVSS
VL: DIQMTQSPSSLSASVGDRVTITCRASQDISNMLNWYQQKPGKAPKLLIYYTSRLKPGVPSRFSGSGSGTDYTFTISSLQPEDIATYFCQQGKTAPYTFGQGTKLEIK
As to B1, the “IC50 for Antibody (PM), MRC-5 bioassay (IL-1α-stimulated production of IL-8)” value (from here on “IC50 for Antibody (PM), MRC-5 bioassay”) in the test with recombinant human IL-1α [1] was 0.0006 nM. The “IC50 for Antibody (PM), MRC-5 bioassay” value with cynomolgus IL-1α [2] turned out to be 0.0008 nM. Also, in the test with recombinant human IL-1α [3], the Kd is 0.0308 nM, the koff stood at 2.77e-05 s⁻¹ and the on-rate constant (kon) was 900000 M⁻¹ s⁻¹. Further, in the test with cynomolgus IL-1α [4], binding was characterised by a dissociation constant (Kd) of 0.0149 nM, the koff came to 1.33e-05 s⁻¹ and the on-rate (kon) is 901000 M⁻¹ s⁻¹. Further, the concentration for a half-maximal effect (EC50) with recombinant human IL-1α [5] was 0.072 nM.

B2: h3D12.8 (antibody, V domains shown)
VH: EIQLVQSGSELKKPGASVKVSCKASGYTFTNYGMNWVRQAPGQDLERMAWINTYTGESTYADDFKGRFVFSLDTSVSTAYLQISSLKAEDTAVYFCARGIYYYGSSYAMDYWGQGTTVTVSS
VL: DIQMTQSPSSLSASVGDRVTITCRASQDISNCLNWYQQKPGKTPKLLIYYTSRLHSGVPSRFSGSGSGTDYTFTISSLQPEDIATYFCQQGKTLPYAFGQGTKLEIK
notes: also called humanized 3D12 antibody h3D12.8; VH H3D12VH.1A / VL H3D12VK.1C
As for B2, in the test with recombinant human IL-1α [1], the “IC50 for Antibody (PM), MRC-5 bioassay” value is 1.95 nM. Besides, in the test with recombinant human IL-1α [3], the Kd came to 1.35 nM, the koff was 0.00274 s⁻¹ and the kon is 2.04e+06 M⁻¹ s⁻¹. Moreover, the half-maximal effective concentration (EC50) in the test with recombinant human IL-1α [5] came to 0.028 nM.

B3: h3D12-362-10/372-15 (antibody, V domains shown)
VH: EVQLVQSGAEVKKPGVSVKVSCKASGYTFTTYGMHWVRQAPGQGLEWMGWINTYTGESTYADDFQGRVTFTLDTSTSTAYMELSSLRSEDTAVYFCARGIYYYGSSYAMNYWGQGTTVTVSS
VL: DIQMTQSPSSLSASVGDRVTITCRASQDISNMLNWYQQKPGKTPKLLIYYTSRLYPGVPSRFSGSGSGTDYTFTISSLQPEDIATYFCQQGKTLPYAFGQGTKLEIK
Take B3: the “IC50 for Antibody (PM), MRC-5 bioassay” value in the test with recombinant human IL-1α [1] amounted to 0.006 nM; in the test with cynomolgus IL-1α [2], 0.0126 nM. Further, the dissociation constant (Kd) came out at 0.115 nM with recombinant human IL-1α [3] and 0.0578 nM with cynomolgus IL-1α [4]. Moreover, the koff amounted to 4.1e-05 s⁻¹ with recombinant human IL-1α [3] and 2.25e-05 s⁻¹ with cynomolgus IL-1α [4]. In addition, the values for the on-rate (kon) with recombinant human IL-1α [3] and with cynomolgus IL-1α [4] were 355000 M⁻¹ s⁻¹ and 389000 M⁻¹ s⁻¹, respectively. Further, in the test with recombinant human IL-1α [5], the concentration giving a half-maximal response (EC50) was determined as 0.007 nM.

B4: h3D12.r10 (antibody, V domains shown)
VH: EIQLVQSGAEVKKPGASVKVSCKASGYTFAHYGMNWVRQAPGQGLEWMGWINTYTGQSTYADDFKGRFTFTLDTSTSTAYMELSSLRSEDTAVYYCARGIYYFGSNYAMDYWGQGTTVTVSS
VL: DIQMTQSPSSLSASVGDRVTITCRASQDISNMLNWYQQKPGKTPKLLIYYTSRLRSGVPSRFSGSGSGTDYTFTISSLQPEDIATYFCQQGKKPPYTFGQGTKLEIK
For the molecule B4, the “IC50 for Antibody (PM), MRC-5 bioassay” value in the test with recombinant human IL-1α [1] amounted to 0.0006 nM. Besides, the “IC50 for Antibody (PM), MRC-5 bioassay” value with cynomolgus IL-1α [2] is 0.00098 nM. Moreover, in the test with recombinant human IL-1α [3], the dissociation constant (Kd) is 0.0324 nM, the koff worked out at 3.75e-05 s⁻¹ and the kon turned out to be 1.16e+06 M⁻¹ s⁻¹. Besides, in the test with cynomolgus IL-1α [4], binding was put at a Kd of 0.00894 nM, the koff was determined as 1.2e-05 s⁻¹ and the kon worked out at 1.37e+06 M⁻¹ s⁻¹. For the same molecule, in the test with recombinant human IL-1α [5], the concentration for a half-maximal effect (EC50) was 0.0692 nM.

B5: h3D12.r37 (antibody, V domains shown)
VH: EIQLVQSGAEVKKPGASVKVSCKASGYTFKYYGMNWVRQAPGQGLERMGWINTYTGESRYADDFKGRVTFTLDTSTSTAYMELSSLRSEDTAVYYCARDIYYFGSDYAMDYWGQGTTVTVSS
VL: DIQMTQSPSSLSASVGDRVTITCRASQDISNRLNWYQQKPGKAPKLLIYYASRLKPGVPSRFSGSGSGTDYTFTISSLQPEDIATYFCQQGNTPPYTFGQGTKLEIK
Take B5: the “IC50 for Antibody (PM), MRC-5 bioassay” value in the test with recombinant human IL-1α [1] is 0.0014 nM. For the same molecule, the “IC50 for Antibody (PM), MRC-5 bioassay” value with cynomolgus IL-1α [2] is 0.0006 nM. Further, in the test with recombinant human IL-1α [3], the Kd came to 0.0281 nM, the koff was 2.54e-05 s⁻¹ and the association rate constant (kon) is 896000 M⁻¹ s⁻¹. Further, in the test with cynomolgus IL-1α [4], the equilibrium dissociation constant (Kd) was determined as 0.0394 nM, the dissociation rate constant (koff) is 3.82e-05 s⁻¹ and the on-rate constant (kon) is 970000 M⁻¹ s⁻¹. Further, the concentration giving a half-maximal response (EC50) in the test with recombinant human IL-1α [5] turned out to be 0.114 nM.

B6: h3D12.16 (antibody, V domains shown)
VH: EIQLVQSGAEVKKPGASVKVSCKASGYTFTNYGMNWVRQAPGQDLERMAWINTYTGESTYADDFKGRFTFTLDTSTSTAYMELSSLRSEDTAVYFCARGIYYYGSSYAMDYWGQGTTVTVSS
VL: DIQMTQSPSSLSASVGDRVTITCRASQDISNCLNWYQQKPGKTPKLLIYYTSRLHSGVPSRFSGSGSGTDYTFTISSLQPEDIATYFCQQGKTLPYAFGQGTKLEIK
notes: also called humanized 3D12 antibody h3D12.16; VH H3D12VH.2A / VL H3D12VK.1C
Regarding B6, the “IC50 for Antibody (PM), MRC-5 bioassay” value in the test with recombinant human IL-1α [1] was determined as 1.36 nM. Besides, in the test with recombinant human IL-1α [3], the Kd came to 2.09 nM, the koff was determined as 0.00253 s⁻¹ and the kon stood at 1.21e+06 M⁻¹ s⁻¹. For the same molecule, the concentration giving a half-maximal response (EC50) with recombinant human IL-1α [5] turned out to be 0.01 nM.

B7: murine anti-human IL-1α monoclonal antibody 3D12 (antibody, V domains shown)
VH: QIQLVQSGPELKKPGETVKISCKASGYTFRNYGMNWVKQAPGKDLKRMAWINTYTGESTYADDFKGRFAFSLETSASTAYLQINNLKNEDTATYFCARGIYYYGSSYAMDYWGQGTSVTVSS
VL: IQMTQTTSSLSASLGDRVTISCRASQDISNCLNWYQQKPDGTVKLLIYYTSRLHSGVPSRFSGSGSGTDYSLTISNLEQEDIATYFCQQGKTLPYAFGGGTKLEINR
As to B7, the “IC50 for Antibody (PM), MRC-5 bioassay” value with recombinant human IL-1α [1] was 1.88 nM; in the test with cynomolgus IL-1α [2], 0.0723 nM.

Usually Kd stands for a measure of binding affinity in units of concentration. In general, koff refers to a measure of how fast the partners let go of each other. One may read the kon as the rate constant with which the complex forms. In general, EC50 refers to the concentration giving half of the maximal effect.

For the origin of these results see patent US20110165063A1 (published 2011).
